The text below walks through data of article PMC3493473.

For experiment [1], the target named is T1, ROP18-kinase domain (ROP18-KD) (Toxoplasma gondii) (UniProt Q2PAY2).
T1 sequence: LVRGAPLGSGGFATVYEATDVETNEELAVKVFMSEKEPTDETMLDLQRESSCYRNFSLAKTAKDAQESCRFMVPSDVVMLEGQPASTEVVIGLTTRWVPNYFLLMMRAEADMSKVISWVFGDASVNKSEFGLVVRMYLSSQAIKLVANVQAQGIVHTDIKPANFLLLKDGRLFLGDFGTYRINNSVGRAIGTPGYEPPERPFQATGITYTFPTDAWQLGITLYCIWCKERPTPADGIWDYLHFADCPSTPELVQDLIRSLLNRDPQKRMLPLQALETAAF

Experiment [2] concerns the target full length ROP18 (ROP18-FL), recombinant (Toxoplasma gondii (type I RH strain)).

In turn, “recombinant ROP5 (rROP5) (from UniProt F2YGR7 25-549) (natural protein)” had an in vitro 32P kinase activity of ROP18-KD (100 ng) on dMBP with against without rROP5 (200 ng), fold increase (Figure 5E) in experiment [1] of 12 fold. Moreover, the in vitro 32P kinase activity of ROP18-FL (25 ng) on immunoprecipitated Irgb6 with against without rROP5 (50 ng), fold increase (Figure 5F) in experiment [2] came to 12 fold.
